Measured values as given in patent US10100120B2, “Antibody which specifically binds to human CRTH2” (KYOWA HAKKO KIRIN CO., LTD, priority 2015, dated 2018).

Legend:
[1] = test system: differentiation-induced human mast cells; test: Reactivity against differentiation-induced human mast cells; assay type: binding; settings: mast cells stimulated by IgE and crosslinking antibody; antibody 10 μg/mL; FIG. 14
Method: Mast cells were prepared according to the method described in Nature Protocols 2006, 1(4), 2178 to 2183. The mast cells after 11 weeks from the start of differentiation induction were washed with SM and seeded in a 96-well plate such that each well had 5×10^4 cells, and PE anti-human CD203c (E-NPP3) Antibody (Biolegend Inc.), Brilliant Violet 421 (trademark) anti-human CD117 (c-kit) Antibody (Biolegend Inc.), and Anti-Human Fc epsilon Receptor I alpha (FcεR1) PE (eBioscience) were added thereto to cause a reaction at 4° C. for 1 hour. After the cells were washed again, the cells were suspended with SM, and the fluorescent intensity was analyzed by flow cytometry (BD Biosciences, FACS CantoII). […]
After the cells were washed, streptavidin, Alexa Fluor 647 conjugate (Molecular Probes) diluted with SM was added to wells to which biotin-labeled LV0HV1, hu19A2 v52, ch8B1 v1, ch3C12, or ch31A5 was added, goat anti-Rat IgG Alexa 647 (Molecular Probes) diluted with SM was added to wells to which BM16 was added, and goat anti-Mouse IgG Alexa 647 (Molecular Probes) diluted with SM was added to wells to which 301108 was added at a final concentration of 10 μg/mL to cause a reaction at 4° C. for 40 minutes. After the cells were washed again, the cells were suspended with SM, and the fluorescent intensity was analyzed by flow cytometry (BD Biosciences, FACS CantoII).

[2] = test system: human eosinophils; test: Agonist, antagonist and ligand-induced signal enhancing activity using shape change of human eosinophils (Example 21); assay type: cell-based; settings: antibody 10 μg/mL, FIG. 18
Method: Eosinophils were separated from human peripheral blood in the same manner as in Example 11. In this case, the step of adding the same amount of physiological saline for injection as the blood to the blood was omitted and the […] on Ficoll-Paque PREMIUM 1.084 (GE Healthcare). The isolated human eosinophils were suspended with D-PBS (−) (NACALAI TESQUE, Inc.) and a reaction was performed in a 5% CO2 incubator at 37° C. for 1 hour and 30 minutes.
Thereafter, the cells were seeded in a 96-well plate at 0.7×10^5 cells/well using 10% FBS-containing RPMI1640. Next, an isotype control antibody, the humanized Lym2 antibody LV0HV1, the anti-human CRTH2 antibody hu19A2 v52, ch8B1, ch3C12, or ch31A5 prepared in Example 9, or the commercially available anti-human CRTH2 antibody BM16 (Santa Cruz Biotechnology), or 301108 (R&D) was added thereto at a final concentration of 10 μg/mL to cause a reaction in a 5% CO2 incubator at 37° C. for 30 minutes. […]
Next, RPMI1640 containing either DKPGD2 (Cayman Chemical) or 10% FBS—was added thereto at a final concentration of 100 nM to cause a reaction in a 5% CO2 incubator at 37° C. for 60 minutes. […] The cells were washed twice with SM, and the shape change of eosinophils was analyzed in the same manner as in Example 19.

B1: LV0HV1: humanized Lym2 antibody, VL LV0 (SEQ ID NO: 33), VH HV1 (SEQ ID NO: 51) (antibody, V domains shown)
VH: EVQLVESGGGVVQPGRSLRLSCAASGFTFSNYYMAWVRQAPGKGLEWVATISYDGSSTYYRDSVKGRFTISRDNAKNSLYLQMNSLRAEDTATYYCARHRGYYYSGAGYFDYWGQGTMVTVSS
VL: DIVMTQTPLSLPVTPGESASISCRSSQSLEYSDGYTYLEWYLQKPGQSPQVLIYGVSNRFSGVPDRFSGSGSGTDFTLKISRVEAEDVGVYYCFQATHDPLTFGQGTKLEIK
reactivity against mast cells [1]: did not exhibit reactivity | effect on shape change of eosinophils induced by DKPGD2 ([2]; DKPGD2 100 nM): do not affect shape change | shape change of eosinophils in the absence of a ligand (agonist activity) ([2]; no DKPGD2): do not affect shape change
